From US20110086795A1

Target: Myc-tagged Slo1QEERL
Experiment: cell-based or functional assay

reduction in mean surface expression of Slo1 (cell-surface biotinylation, densitometry): 50%
Substance: HA-tagged Slo1VEDEC
